In publication PMC8866119 (Nature, 2021):

B1: DH1045 (antibody, V domains shown)
VH: QLQLQESGPGLVKPSETLSLTCTVSGGSISSSGYYWGWIRQPPGKGLEWIGTIYYGGSTYYSPSLKSRVTISVDTSKNQFSLKLSSVTAADTAVYYCASQQWLRGNFDYWGQGTLVTVSS
VL: NFMLTQPHSVSESPGKTVTISCTGSSGSIASNYVQWYQQRPGSAPTTVIYEDNQRPSGVPDRFSGSIDSSSNSASLTISGLKTEDEADYYCQSYDSSTYWVFGGGTKLTVL
B2: BD55-3304 (antibody, V domains shown)
VH: QVQLVESGGGVVQPERSLRLSCAASGFIFSNYGMHWVRQAPGKGLEWVALIWYDGSNRYYADSVKGRFTISRDNSRNTLYLQMNSLRAEDTAMYYCAKSALRGYSGYDFFSRVSDEYYFDNWGQGTLVTVSS
VL: DIVMTQSPDSLAVSLGERATISCKSSQSVLYSSNNQNYLAWYQQKPGQPPKLLIKWASTRESGVPDRFSGSGSGTDFTLTITSLQAEDVAVYYCQQYFDTPHFGQGTKLEIK

Molecular target: SARS-CoV-2 Omicron (B.1.1.529) RBD (SARS-CoV-2 Omicron B.1.1.529 (BA.1), strain)

Binder	binding result
B1	binds
B2	binds
